Reference: the supplement of paper PMC10126150
± gives the standard deviation of the averaged measurements.
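Also: ATP exposure 15 min at 22 °C before imaging.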

Each sequence was assayed on ATP (assay: switch fluorescence ratio, 500 uM ATP over buffer (Cy3 cluster intensity, sum of 5 cycles each) (fold (ratio)); higher = stronger signal-on switching upon ATP binding; sequences stand for … in TCGTCGGCAGCGTCAGATGTGTATAAGAGACAGTTTTTTTTTTTTTTTTTTTTTTTTT…TC). Settings: aptamer strand: ATP DNA aptamer (quencher-CACCTGGGGGAGTATTGCGGAGGAAGG + anchor), 100 nM annealed; ATP concentration: 500 uM.
Outline: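 The fluorescence ratio divides summed target-cycle Cy3 intensity by summed buffer-cycle Cy3 intensity for each cluster and is averaged per switch-domain sequence. Cy3-labelled switching-strand clusters on a modified Illumina MiSeq flow-cell were annealed to 100 nM quencher-labelled ATP aptamer, then imaged in selection buffer and again after 15 min with 500 uM ATP at 22 °C. Five such cycles were run, with NaOH stripping and re-annealing between them, and clusters outside 100-1000 RFU were excluded.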
Sequence GCTGTAAGGG has a switch fluorescence ratio of 0.988 ± 0.028.
GCTGTAGGCC was tested, and the switch fluorescence ratio was 1.02 ± 0.014.
GCTGTAGGTG was tested, and the switch fluorescence ratio was 1.039 ± 0.0033.
For GCTGTAGGTT, the switch fluorescence ratio was 1 ± 0.011.
GCTGTATGAG gave a switch fluorescence ratio of 0.985 ± 0.029.
GCTGTATGGC was tested, and the switch fluorescence ratio was 1.01 ± 0.027.
With GCTGTCATGA the switch fluorescence ratio was 0.9853 ± 0.0074.
GCTGTGGTT gave a switch fluorescence ratio of 0.9376 ± 0.00097.
In the case of GCTGTTACGG, the switch fluorescence ratio is reported as 0.983 ± 0.016.
GCTGTTGTCG showed a switch fluorescence ratio of 0.974 ± 0.052.
Work on GCTTAAGGGC yielded a switch fluorescence ratio of 0.956 ± 0.033.
GCTTACAGGA was tested, and the switch fluorescence ratio was 1.01 ± 0.033.
GCTTAGGATT was tested, and the switch fluorescence ratio was 1.01 ± 0.033.
With GCTTATTAGT the switch fluorescence ratio was 1 ± 0.0042.
Sequence GCTTCAGGGT has a switch fluorescence ratio of 0.989 ± 0.025.
GCTTCCGGGG was tested, and the switch fluorescence ratio was 1.27 ± 0.06.
Sequence GCTTCGAGGG has a switch fluorescence ratio of 0.968 ± 0.013.
With GCTTCGGGGG the switch fluorescence ratio was 1.06 ± 0.043.
GCTTCGTTGG showed a switch fluorescence ratio of 1.17 ± 0.18.
GCTTCTGAGG showed a switch fluorescence ratio of 1.07 ± 0.018.
For GCTTCTGGAA, the switch fluorescence ratio was 1.06 ± 0.018.
Sequence GCTTCTGGTT has a switch fluorescence ratio of 0.988 ± 0.023.
GCTTGCACTA was tested, and the switch fluorescence ratio was 0.998 ± 0.015.
In the case of GCTTGCCGGT, the switch fluorescence ratio is reported as 1 ± 0.037.
With GCTTGCGATG the switch fluorescence ratio was 1.01 ± 0.011.
For GCTTGCTATT, the switch fluorescence ratio was 0.965 ± 0.021.
For GCTTGCTTTT, the switch fluorescence ratio was 0.989 ± 0.022.
GCTTGGACGG was tested, and the switch fluorescence ratio was 1.02 ± 0.055.
GCTTGGATAA was tested, and the switch fluorescence ratio was 1.02 ± 0.032.
GCTTGGGATT was tested, and the switch fluorescence ratio was 0.977 ± 0.029.
In the case of GCTTGGTGCT, the switch fluorescence ratio is reported as 1.05 ± 0.031.
GCTTGTGACG gave a switch fluorescence ratio of 1.02 ± 0.058.
For GCTTGTTTGT, the switch fluorescence ratio was 1.02 ± 0.024.
In the case of GCTTTAAGTA, the switch fluorescence ratio is reported as 0.992 ± 0.044.
GCTTTAGAGG was tested, and the switch fluorescence ratio was 1.004 ± 0.0053.
GCTTTATTGC showed a switch fluorescence ratio of 1.01 ± 0.014.
Sequence GCTTTCATTT has a switch fluorescence ratio of 1.013 ± 0.0049.
Sequence GCTTTCCCTT has a switch fluorescence ratio of 1.022 ± 0.01.
For GCTTTCGATG, the switch fluorescence ratio was 1.02 ± 0.02.
GCTTTCTCGG gave a switch fluorescence ratio of 1.08 ± 0.048.
GCTTTGATTT gave a switch fluorescence ratio of 1.02 ± 0.022.
GCTTTGGAAG showed a switch fluorescence ratio of 0.985 ± 0.034.
Sequence GCTTTGGGAC has a switch fluorescence ratio of 1.25 ± 0.28.
Work on GCTTTGTACG yielded a switch fluorescence ratio of 1.042 ± 0.0014.
GCTTTTAAGT gave a switch fluorescence ratio of 0.99809 ± 0.00068.
In the case of GCTTTTAGCC, the switch fluorescence ratio is reported as 0.991 ± 0.043.
Sequence GCTTTTCGTA has a switch fluorescence ratio of 0.9995 ± 0.0064.
With GCTTTTGTTT the switch fluorescence ratio was 1.04 ± 0.013.
GCTTTTTCTT showed a switch fluorescence ratio of 1.018 ± 0.004.
Sequence GCTTTTTTTT has a switch fluorescence ratio of 1.01 ± 0.019.
GGAAAAAGGC gave a switch fluorescence ratio of 0.9838 ± 0.0058.
GGAAAAAGTG was tested, and the switch fluorescence ratio was 0.991 ± 0.014.
For GGAAAAGAGA, the switch fluorescence ratio was 1.01 ± 0.017.
Sequence GGAAACAGGG has a switch fluorescence ratio of 0.964 ± 0.02.
With GGAAACGATT the switch fluorescence ratio was 1.01 ± 0.035.
GGAAACTAGG was tested, and the switch fluorescence ratio was 1.016 ± 0.003.
Work on GGAAAGGGAT yielded a switch fluorescence ratio of 0.991 ± 0.012.
In the case of GGAAAGTTGG, the switch fluorescence ratio is reported as 0.996 ± 0.012.
GGAAATAAAA was tested, and the switch fluorescence ratio was 1.22 ± 0.24.
Sequence GGAAATGAGT has a switch fluorescence ratio of 1.02 ± 0.016.
GGAAATGGGT showed a switch fluorescence ratio of 1.05 ± 0.036.
In the case of GGAAATGTCG, the switch fluorescence ratio is reported as 0.918 ± 0.078.
GGAAATTCAT showed a switch fluorescence ratio of 1.36 ± 0.54.
For GGAACAGGGT, the switch fluorescence ratio was 0.934 ± 0.072.
Sequence GGAACGGGGA has a switch fluorescence ratio of 1.01 ± 0.017.
GGAACGGGTC showed a switch fluorescence ratio of 1.02 ± 0.024.
Work on GGAACTGCTG yielded a switch fluorescence ratio of 1.04 ± 0.029.
Work on GGAACTTTTA yielded a switch fluorescence ratio of 1.01 ± 0.023.
GGAAGAATGG was tested, and the switch fluorescence ratio was 0.985 ± 0.024.
GGAAGATGGG gave a switch fluorescence ratio of 0.99 ± 0.021.
Work on GGAAGGGTTG yielded a switch fluorescence ratio of 1 ± 0.034.
Sequence GGAAGGTGGG has a switch fluorescence ratio of 1.15 ± 0.25.
GGAAGGTTTT showed a switch fluorescence ratio of 0.97669 ± 0.00029.
In the case of GGAAGTAGAT, the switch fluorescence ratio is reported as 1.01 ± 0.028.
Work on GGAAGTGGCA yielded a switch fluorescence ratio of 1.01 ± 0.041.
GGAATAATGT was tested, and the switch fluorescence ratio was 1.03 ± 0.061.
Sequence GGAATAGATT has a switch fluorescence ratio of 0.99048 ± 0.00037.
Sequence GGAATAGGCT has a switch fluorescence ratio of 0.967 ± 0.059.
GGAATCCGGC gave a switch fluorescence ratio of 1.06 ± 0.02.
For GGAATGTGAA, the switch fluorescence ratio was 0.978 ± 0.019.
For GGAATGTGGG, the switch fluorescence ratio was 0.984 ± 0.042.
GGAATGTTGC gave a switch fluorescence ratio of 0.9733 ± 0.0039.
In the case of GGAATTATTG, the switch fluorescence ratio is reported as 1.08 ± 0.15.
In the case of GGAATTTCGG, the switch fluorescence ratio is reported as 1.17 ± 0.23.
Sequence GGAATTTGGA has a switch fluorescence ratio of 0.983 ± 0.057.
For GGAATTTGGG, the switch fluorescence ratio was 0.99 ± 0.021.
Sequence GGACAATGAG has a switch fluorescence ratio of 0.998 ± 0.035.
In the case of GGACACTCTG, the switch fluorescence ratio is reported as 0.977 ± 0.013.
Work on GGACAGGTTT yielded a switch fluorescence ratio of 0.9784 ± 0.0034.
Work on GGACAGTTGT yielded a switch fluorescence ratio of 1.01 ± 0.057.
GGACCAGGGA was tested, and the switch fluorescence ratio was 1 ± 0.046.
For GGACCGGCTA, the switch fluorescence ratio was 0.998 ± 0.02.
GGACGACCGG showed a switch fluorescence ratio of 1.02 ± 0.027.
GGACGGCTGC gave a switch fluorescence ratio of 1.02 ± 0.029.
For GGACGGGGAC, the switch fluorescence ratio was 1.12 ± 0.015.
GGACGGGTGC showed a switch fluorescence ratio of 1.1 ± 0.088.
GGACTACCTG gave a switch fluorescence ratio of 1.01 ± 0.022.
For GGACTAGGTT, the switch fluorescence ratio was 1.006 ± 0.0033.
In the case of GGACTCTAGG, the switch fluorescence ratio is reported as 0.979 ± 0.027.
GGACTGAGGA was tested, and the switch fluorescence ratio was 1.002 ± 0.01.
GGACTGTGGG was tested, and the switch fluorescence ratio was 1.02 ± 0.044.
In the case of GGACTGTTTG, the switch fluorescence ratio is reported as 1.01 ± 0.041.
Work on GGACTTAATG yielded a switch fluorescence ratio of 1.02 ± 0.016.
With GGACTTGGTT the switch fluorescence ratio was 1.01 ± 0.034.
With GGAGAATATT the switch fluorescence ratio was 1.02 ± 0.059.
With GGAGACGGGT the switch fluorescence ratio was 1.02 ± 0.036.
In the case of GGAGAGAAGC, the switch fluorescence ratio is reported as 1.02 ± 0.076.
In the case of GGAGAGATTT, the switch fluorescence ratio is reported as 1.01 ± 0.034.
In the case of GGAGAGGTTG, the switch fluorescence ratio is reported as 0.971 ± 0.021.
With GGAGAGTCGG the switch fluorescence ratio was 0.977 ± 0.035.
GGAGATATTA was tested, and the switch fluorescence ratio was 1.01 ± 0.026.
GGAGCAAAGG was tested, and the switch fluorescence ratio was 2.63 ± 0.1.
Work on GGAGCGAGGG yielded a switch fluorescence ratio of 1.11 ± 0.061.
GGAGGAAGAT was tested, and the switch fluorescence ratio was 1.047 ± 0.0093.
For GGAGGACTCG, the switch fluorescence ratio was 0.982 ± 0.05.
In the case of GGAGGAGAAT, the switch fluorescence ratio is reported as 1 ± 0.014.
Work on GGAGGCCCCA yielded a switch fluorescence ratio of 0.996 ± 0.033.
For GGAGGCGTTC, the switch fluorescence ratio was 0.995 ± 0.013.
In the case of GGAGGCTGAG, the switch fluorescence ratio is reported as 0.993 ± 0.011.
Work on GGAGGGACTG yielded a switch fluorescence ratio of 1.06 ± 0.17.
GGAGGGAGGT gave a switch fluorescence ratio of 1.01 ± 0.012.
GGAGGGAGTG was tested, and the switch fluorescence ratio was 0.98 ± 0.025.
In the case of GGAGGGCGTG, the switch fluorescence ratio is reported as 0.988 ± 0.021.
With GGAGGGGCAC the switch fluorescence ratio was 0.979 ± 0.036.
Work on GGAGGGGGAT yielded a switch fluorescence ratio of 1.03 ± 0.043.
GGAGGGGGCG was tested, and the switch fluorescence ratio was 0.999 ± 0.061.
Sequence GGAGGGGGGT has a switch fluorescence ratio of 1.01 ± 0.023.
With GGAGGGGGTT the switch fluorescence ratio was 1.01 ± 0.051.
GGAGGGGTTG gave a switch fluorescence ratio of 1.04 ± 0.015.
In the case of GGAGGGTGGT, the switch fluorescence ratio is reported as 0.9906 ± 0.0019.
Sequence GGAGGTGGGT has a switch fluorescence ratio of 1.01 ± 0.03.
GGAGGTTGGC was tested, and the switch fluorescence ratio was 1.02 ± 0.07.
For GGAGGTTTGG, the switch fluorescence ratio was 0.992 ± 0.044.
GGAGTAATTT showed a switch fluorescence ratio of 1.07 ± 0.016.
GGAGTAGACT gave a switch fluorescence ratio of 1.02 ± 0.02.
GGAGTAGCTA showed a switch fluorescence ratio of 1.03 ± 0.04.
For GGAGTAGGGA, the switch fluorescence ratio was 1.02 ± 0.031.
With GGAGTGTTTC the switch fluorescence ratio was 1.01 ± 0.016.
Work on GGAGTTAGGA yielded a switch fluorescence ratio of 0.9866 ± 0.0098.
Sequence GGAGTTAGTC has a switch fluorescence ratio of 1.01 ± 0.021.
Sequence GGAGTTATAA has a switch fluorescence ratio of 1.05 ± 0.034.
GGAGTTTAAG was tested, and the switch fluorescence ratio was 0.996 ± 0.039.
GGAGTTTCGG gave a switch fluorescence ratio of 1 ± 0.031.
GGATAACGTA was tested, and the switch fluorescence ratio was 1.01 ± 0.049.
In the case of GGATAGCCGA, the switch fluorescence ratio is reported as 0.99 ± 0.086.
In the case of GGATAGCTCG, the switch fluorescence ratio is reported as 0.987 ± 0.041.
For GGATAGGATG, the switch fluorescence ratio was 0.974 ± 0.022.
GGATAGTGGT was tested, and the switch fluorescence ratio was 1.01 ± 0.0079.
GGATATACGT gave a switch fluorescence ratio of 1.01 ± 0.017.
Work on GGATATATTG yielded a switch fluorescence ratio of 1.02 ± 0.024.
GGATATCGAG showed a switch fluorescence ratio of 0.9982 ± 0.0069.
With GGATATCGTT the switch fluorescence ratio was 1.032 ± 0.0059.
GGATATGGCA showed a switch fluorescence ratio of 1.01 ± 0.037.
